Patent EP4613767A1 (Shanghai Qilu Pharmaceutical Research and Development …, dated 2025)

What was measured:
[1] = molecular target: T1, human CD3 naturally expressed on Jurkat cells (human, UniProt P07766 23-207; P04234 22-171; P09693 23-182); assay: FACS on Jurkat cells naturally expressing human CD3
T1 construct: whole, on cells; also called hCD3

[2] = molecular target: T2, monkey GPC3 protein (Acro, Cat. No.: GP3-C522a) (monkey); assay: SPR Biacore 8K, anti-human Fc on CM5 chip, GPC3 protein as analyte, 1:1 fit
T2 construct: Bought recombinant protein

[3] = molecular target: monkey CD3 E&D protein (Acro, Cat. No.: CDD-C52W4) (monkey, UniProt Q95LI5 22-117; Q95LI8 22-105); assay: SPR Biacore 8K, CD3 E&D immobilised on CM5 chip, antibody as analyte, 1:1 fit
[4] = molecular target: T3, human CD3 E&D protein (Acro, Cat. No.: CDD-H52W1) (human, UniProt P07766 23-126; P04234 22-105); assay: as above
T3 construct: Bought recombinant protein
T3 sequence (P07766 23-126, chain 1 of 2): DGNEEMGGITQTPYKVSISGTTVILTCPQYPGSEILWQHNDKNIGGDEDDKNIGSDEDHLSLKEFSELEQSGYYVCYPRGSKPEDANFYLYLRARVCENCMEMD
T3 sequence (P04234 22-105, chain 2 of 2): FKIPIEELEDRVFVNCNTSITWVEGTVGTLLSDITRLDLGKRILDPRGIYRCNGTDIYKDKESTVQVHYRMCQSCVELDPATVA

monkey CD3 E&D protein (Acro, Cat. No.: CDD-C52W4), sequence (Q95LI5 22-117, chain 1 of 2): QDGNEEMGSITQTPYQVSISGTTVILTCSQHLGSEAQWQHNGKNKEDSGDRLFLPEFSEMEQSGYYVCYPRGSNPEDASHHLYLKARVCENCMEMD
monkey CD3 E&D protein (Acro, Cat. No.: CDD-C52W4), sequence (Q95LI8 22-105, chain 2 of 2): as the sequence (P04234 22-105, chain 2 of 2) above, with I5V, N15K, I20V, S32T, D33N, I34N, T64A, S74N, V83L counted along it
T1 sequence (P07766 23-207, chain 1 of 3): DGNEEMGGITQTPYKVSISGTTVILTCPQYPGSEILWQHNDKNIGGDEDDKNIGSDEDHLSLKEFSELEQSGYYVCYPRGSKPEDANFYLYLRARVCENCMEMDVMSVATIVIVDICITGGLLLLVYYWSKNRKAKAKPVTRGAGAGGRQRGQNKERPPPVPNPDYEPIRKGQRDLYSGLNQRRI
T1 sequence (P04234 22-171, chain 2 of 3): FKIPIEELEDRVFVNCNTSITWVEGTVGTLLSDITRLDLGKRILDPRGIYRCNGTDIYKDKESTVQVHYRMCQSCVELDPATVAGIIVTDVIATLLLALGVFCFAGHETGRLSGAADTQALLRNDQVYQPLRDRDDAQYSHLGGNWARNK
T1 sequence (P09693 23-182, chain 3 of 3): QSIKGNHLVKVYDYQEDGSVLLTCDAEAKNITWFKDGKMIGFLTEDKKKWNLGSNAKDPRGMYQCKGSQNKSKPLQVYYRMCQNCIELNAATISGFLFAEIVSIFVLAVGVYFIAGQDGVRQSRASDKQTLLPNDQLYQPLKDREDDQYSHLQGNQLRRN

| Binder | EC50 [1] | Kd [2] | koff [2] | kon [2] | Kd [3] | koff [3] | kon [3] | Kd [4] | koff [4] | kon [4] |
| --- | --- | --- | --- | --- | --- | --- | --- | --- | --- | --- |
| bispecific antigen-binding molecule G100 (bispecific antibody, Heterodimer of two chains (Format 1): one anti-GPC3 VHH on Knob-Fc, one anti-CD3 scFv on Hole-Fc; also called anti-CD3-GPC3 bispecific antibody; Format 1) chain 1: not shown chain 2: EVKLVESGGGLVQPGGSLKLSCAASGFTFNTYAMNWVRQAPGKGLEWVARIRSKYNNYATYYADSVKDRFTISRDDAKNTLYLQMNNLRTEDTAVYYCVRHGNFGNSYVSWFAYWGQGTLVTVSSGGGGSGGGGSGGGGSAQAVVTQEPSLTVSPGGTVTLTCRSSTGAVTTSNYANWVQQKPGQAPRGLIGGTNKRAPGTPARFSGSLLGGKAALTLSGAQPEDEAEYYCALWYSNLWVFGGGTKLTVLEPKSSDKTHTCPPCPAPEAAGGPSVFLFPPKPKDTLMISRTPEVTCVVVDVSHEDPEVKFNWYVDGVEVHNAKTKPREEQYNSTYRVVSVLTVLHQDWLNGKEYKCKVSNKALPAPIEKTISKAKGQPREPQVCTLPPSRDELTKNQVSLSCAVKGFYPSDIAVEWESNGQPENNYKTTPPVLDSDGSFFLVSKLTVDKSRWQQGNVFSCSVMHEALHNRYTQKSLSLSPGK | 23.9 nM | 9.15 nM | 0.00276 s⁻¹ | 302000 M⁻¹ s⁻¹ | 5.66 nM | 0.00427 s⁻¹ | 755000 M⁻¹ s⁻¹ | 3.49 nM | 0.00286 s⁻¹ | 820000 M⁻¹ s⁻¹ |
| bispecific antigen-binding molecule G156 (bispecific antibody, Heterodimer of two chains (Format 2): two anti-GPC3 VHH on the Knob-Fc chain, one anti-CD3 scFv on Hole-Fc; also called anti-CD3-GPC3 bispecific antibody; Format 2) chain 1: not shown chain 2: EVKLVESGGGLVQPGGSLKLSCAASGFTFNTYAMNWVRQAPGKGLEWVARIRSKYNNYATYYADSVKDRFTISRDDAKNTLYLQMNNLRTEDTAVYYCVRHGNFGNSYVSWFAYWGQGTLVTVSSGGGGSGGGGSGGGGSAQAVVTQEPSLTVSPGGTVTLTCRSSTGAVTTSNYANWVQQKPGQAPRGLIGGTNKRAPGTPARFSGSLLGGKAALTLSGAQPEDEAEYYCALWYSNLWVFGGGTKLTVLEPKSSDKTHTCPPCPAPEAAGGPSVFLFPPKPKDTLMISRTPEVTCVVVDVSHEDPEVKFNWYVDGVEVHNAKTKPREEQYNSTYRVVSVLTVLHQDWLNGKEYKCKVSNKALPAPIEKTISKAKGQPREPQVCTLPPSRDELTKNQVSLSCAVKGFYPSDIAVEWESNGQPENNYKTTPPVLDSDGSFFLVSKLTVDKSRWQQGNVFSCSVMHEALHNRYTQKSLSLSPGK | 27.4 nM | 9.62 nM | 0.00275 s⁻¹ | 285000 M⁻¹ s⁻¹ | 2.79 nM | 0.00367 s⁻¹ | 1.32e+06 M⁻¹ s⁻¹ | 1.3 nM | 0.00193 s⁻¹ | 1.48e+06 M⁻¹ s⁻¹ |
